{"source": "patent US20180258408A1", "molecular_target": "M6P receptors on MEF-1 fibroblasts", "experiment": "cell-based or functional assay"}
{"binder": "sulfamidase modified with R1 oxidation at 22 °C, 30 min, 10 mmol/L sodium meta-periodate (enzyme, N-glycans oxidised with periodate (22 °C, 30 min, 10 mmol/L), then reduced with borohydride as in new method 1) RPRNALLLLADDGGFESGAYNNSAIATPHLDALARRSLLFRNAFTSVSSCSPSRASLLTGLPQHQNGMYGLHQDVHHFNSFDKVRSLPLLLSQAGVRTGIIGKKHVGPETVYPFDFAYTEENGSVLQVGRNITRIKLLVRKFLQTQDDRPFFLYVAFHDPHRCGHSQPQYGTFCEKFGNGESGMGRIPDWTPQAYDPLDVLVPYFVPNTPAARADLAAQYTTVGRMDQGVGLVLQELRDAGVLNDTLVIFTSDNGIPFPSGRTNLYWPGTAEPLLVSSPEHPKRWGQVSEAYVSLLDLTPTILDWFSIPYPSYAIFGSKTIHLTGRSLLPALEAEPLWATVFGSQSHHEVTMSYPMRSVQHRHFRLVHNLNFKMPFPIDQDFYVSPTFQDLLNRTTAGQPTGWYKDLRHYYYRARWELYDRSRDPHETQNLATDPRFAQLLEMLRDQLAKWQWETHDPWVCAPDGVLEEKLSPQCQPLHNEL", "values": [{"measurement": "Cell uptake % of unmodified sulfamidase uptake (% of unmodified sulfamidase uptake)", "result": 7.1}]}
